Test results published in the nanobody polyreactivity screen of Harvey et al. (2022).

Assay: yeast display, Sf9 membrane polyspecificity reagent, FACS + sequencing; frameworks hold sequencing errors
Method in brief: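 Nanobodies came from a synthetic yeast display library in Saccharomyces cerevisiae BJ5465, induced with galactose for 36–48 hours and stained for 1 hour at 4 °C with 10% biotinylated, detergent-solubilized Sf9 membrane reagent. Cells were enriched on streptavidin microbeads and then FACS-sorted, with low and high (top ~1%) gates set on anti-HA fluorescence for expression and streptavidin fluorescence for reagent binding. Each polyreactivity label reflects the gate a clone came from. Genes were amplified by colony PCR, sequenced by MiSeq 2 × 250 and filtered by CDR length.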

Row | Sequence | polyreactivity (PSR sort gate)
1 | QVQLVESGGGLVQAGGSLRLSCAASGRNFYYYAMGWYRQAPGKERELVATITGSGGNTYYADSVKGRFTISRDNAKNTVYLQMNSLKPEDTAVYFCNARLARGYWTPGKERPMEYWGQGTQVTVSS | low polyreactivity
2 | QDQLVESGGGLVQAGGSLRLSCAASGRNFRYYTMGWYRQAPGKERELVAAITRRGGITNYADSVKGRFTISRDNGKNTVYLQMNSLKPEDTAVYYCAAKYVSQCYDYWGQGTQVTVSS | high polyreactivity
3 | QVQLVESGGGLVQAGGSLRLSCASSGSIFLSYTMGWYRKAPGKERELVAAISKRGGSSYYADSVKGRFTISRDNAKNTVYFQMNTLIPEDTAVYYFNADVRYRRRISVTNVYDYWGQGTQVTVSS | high polyreactivity
4 | QVQLVESGGGLVQAGRSLRLSCASSGSPFDPYGKGRYRQAPGKEWEWVAAITASGRTNYADSVKGRFTISRDTAKNTVYLQMNSLKPEDTAFYYCATRKELYFYRGYEYWGQGTQVTVSS | low polyreactivity
5 | QEQLQESGSGLVQAGGSLRLSCAASGNIFQDWVRGWYRQAPGKERELVAAISPGAITYDADSVKGRFTISRDNAKNTVYLQTNSLNPEDTAVYYCAAYYIVEYLQGYWGQGTRVTVSS | low polyreactivity
6 | QVQLVESGGGLVQAGGSLRLSCAASGSISYYNAMGWYRQAPGKERELVAAITYSAGGTYYADSVKGRFTISRDNAKNTVYLQMNSLKPEDTAVYYCAADAYKHVAYGGVYWYYYWGLGTQVTVSS | high polyreactivity
7 | QVQLVESGGGLVQAGGSLRLSCAASGRIFGFYAMGWYRQAPGKERELVAVITYRDGRTYYADSVKGRFTISRDNAKNTVYLQMNSLKPQDTAVYYCAADRGVYDPGDYWGQGTQVTVSS | low polyreactivity
8 | QVQLVESGGGLVQAGGSLRLSCAASGFISPQNTMGWYRQAPGKERELVAAITSGGSTYYADSVKGRFTISRDNAKNTVYLQMNSLKPEDTAVYYCAARPYGTWTYGYWGQGTQVTVSS | low polyreactivity
9 | QVQLVESGGGLVQAGGSLRLSCAASGFTLVGYAMGWYRQAPGKERELVAAISSGGRTKYADSVKGRFTFSRDNAKNTVYLQMNSLKPEDTAVYYCKAVFTRGVTQYDHYYWGQGTQVTVSS | high polyreactivity
10 | QVQLVESGGGLVQAGGSLRLSCAASGRIITRNAMGWYRPAPGKERELVAAISSGGSTSYADSVKGRFTISRDNAKNTVYLQLNSVKPEDTAVYYCATKWYWWYDGYYYWGQGTQVTVSS | low polyreactivity
11 | QVQLVESVRGLVQAGGSLRLSCAASGRILPSNAMGWYRQAPGKERELVAGITSGGSTDYADSVKGRFTISRDNAKNTVYLQMNSLKPEDTAVYYCNKPFPYYPDGPNGYDYWGQGTQVTVSS | low polyreactivity
12 | QVQLVESGGGLVQAGGSLRLSCAASGSIFYVNAMGWSRQAPGKERELVAAITSGVSTNYADSVKGSFTISRDNAKNTVYLQMNSLKREDTAVYYSAADYTYKQLHWVIEDYWGQGTQVTVSS | low polyreactivity
13 | QVQLVESGGGLVQAGGSLRLSCAASGSSFHTYAMGWYRQAPGKERELVAAINRRTGGTYYADSVKGRFTISRDNAKTTVYLQMNSLKPEDTAVYYCATDWFSYRGGIFDSWGQGTQVTVSS | low polyreactivity
14 | QVQLVESGGGLVQAGGSLRLSCAASGRTFKVYAMGWYRQAPGKERELVAAITGGGSTNYADSVKGRFTISRDNAKNTVYLQMNSLKPEDTAVYYCNARYYYRLVKWSRFSSYDYWGQGTQVTVSS | low polyreactivity
15 | QVQLVESGGGLVQAGGSLRFSCAASGFTLQQYTMGWYRQAPGKERELVAAISTSGVRTYYADSVKGRFTISRDNAKNTVYLQMNSLKPEDTAVYYCNAAWVYGIGWYSGYDYWGQGTQVTVSS | high polyreactivity
16 | QVQLVESGGGLVQAGGSLRLSCAASGSIFTSYAMGWYRQAPGKERELVAGITRGGRTYYADSVKGRFTISRDNAKNTVYLQMNSLKPEDTAVYYCAALSSRHFVFTVDYWGQGTQVTVSS | high polyreactivity
17 | QVQLVESGGGLVQAGGSLRLSCAASGFIFSLYAMGWYRQAPGKERELVAAISRSDDRTYYADSVKGRFTISRDDAKNTVYLQMNSLKPEDTAVYYCNVRYSYILIYEYWGQGTQVTVSS | low polyreactivity
18 | QVQLEESGGGLVQAGGSLRLSCAASGSILLGYDMGWYRTAPGKERELVASIDTNGGSPYYADSVKGRFTISRDNAKNTVYLQSNSLKPEDTAVYYCNADPSFVGGTYDYWGQGTQVTVSS | low polyreactivity
19 | QVQLVESGGGLVQAGGSLRLSCAASGGIFIVNAMGWYRPAPGKERELVAAITLSGGSTYYADSVKGRFTISRDNAKNTVYFQMNSLKPEDTAVYYCNKDYYPGSYDYWGQGTQVTVSS | low polyreactivity
20 | QVHLVESGGGLVQAGGSLRLSCAASGFIFDYYAMGWYRQAPGKERELVAAITGSGGGTYYADSVKGRFTISRDNAKNTVYLQMNSLKPEDSAVYYCNAYVPYPYSSEVQDYDYWGQCTQVTVSS | high polyreactivity
21 | QVQLVESGGGLVQAGGSLRLSCAPSGSTFRTYTMGWYIQAPGKERELVAAITGRGGSTYYADSVKGRFTISRDTAKNTVYFQMNSLKREDTAVYYCAALYGGQTKHDFWGQGTQVTVSS | low polyreactivity
22 | QVQLVESGGGLVQAGGSLRLSCAASGSIFWSYGMGWYRQAPGKERELVASTRYADSVKGRFTISRDNAKNTVYLQMNSLKPEDTAVYYCNVRYYGYRFGDDYWGQGTQVTVSS | low polyreactivity

Row | Sequence | polyreactivity (PSR sort gate)
23 | QVQLVESGGGLVQAGGSLRLSCAASGSTFPYYGMGWYRQAPGKERDLVAVISRRGTGTYYADSVKGRFTISRDNAKNTVYLQMNSLKPEDTAVYYCNTDTHGPGPTFDHYDYWGQGTQVTVSS | low polyreactivity
24 | QVQLVESGGGLVQAGGSLRLICAASGRICISNAMGWYRQAPGKERELVAAITWIGDRTYYADSVKGRFTISRDNAKNTVYLQMISLKPEDTAVYYCAADSYSPYTMDYWRQGTQVTVSS | high polyreactivity
25 | QVQLVESGGGLVQAGGSLRLSCAASGSTIYGYAMGWYRQAPGKERELVAAISWSGGRTYYADSVKGRFTISRDNAKNTVYLQMNSLNPVDTAVYYCNTLRRLTGRYGWSSKYYYWGQGTQVTVSS | high polyreactivity
26 | QVQLLESGGGLVQAGGSLRLSFASSGSIFHPYAMGWYRQAPGKERELVAAITSGGSTYYADSVKGLFTISRDNAKNTDLLQMNSLNPEDNAVYYCAKDFDIYYSKYDYWGQGTQVTVSS | low polyreactivity
27 | QVQLVESGGGLVQAGGSLRLSCAASGRTCPRYGLGWYRQAPGKERELVATIRTGGRTNYADSVKGRFTISRDNAKNTVYLQMNSLKPEDTAVYYCATDSSKHPYSPTLLKFDYWGQGTQVTVSS | low polyreactivity
28 | QVQLVESGVGLVQAGGTLRLSCAASGIIISRYTMGWYRQAPGKERELVAAITSSGITYYADSVKGRFTISRDNAKNTVYLQLNSLKPEDTAVYYCARETYGDYVHYDYWGLGTQVTVSS | low polyreactivity
29 | QVQLVESGGGLVQAGGSLRLSCAASGFTFSYNAMGWYRQAPGKERELVAVIKSSGGRTYYADSVKGRFTISRDNAKNTVYLQMNSLKPEDTAVYYCNAVYLQHRYRMYYWGQGTQVTVSS | high polyreactivity
30 | QVQLVESGGGLVQAGGSLRLSCADSGLIFYYYAMGWYRHAPGKERELVAAISYNGGTTYYADSVKGRFTISRDNAKNTVYLQMNSLNPEDTAVYYCAAEQLVSGYDYWGQGTQVTVSS | low polyreactivity
31 | QVQLVESGGGLVQAGGSLRLICAASGSTIYSYAMGWYRQAPGKEREMVAANDWSGTSTYYADSVKGRFTISRDNAKNTVYLQMNSLKPVDTAVYYCNARKRRSYQGGYYYSLRNEYWGQGTQVTVSS | high polyreactivity
32 | QVQLVESGGGLVQAGGSLSLICDASGRTFTRYVMGWYRHAPGKERELVAAISSSGGTYYADSVKGRFTISRDNAKNTVYLQMNSLKPEDTAVYYCAVGSKLSRSYGYYYWGQGTQVTVSS | high polyreactivity
33 | QVQLVESGGGLVQAGGSLRLSCAASGFTFFSNAMGWYRQAPGKERELVASITNDGSTDADSVKGRFTISRDNAKNTVYLQMNSLKPEDTAVYYCAADFYLWRLPVYAQRYFVRGDYWGQGTQVTVSS | low polyreactivity
34 | QVQLVESGGGLVQAGGSLRLSCAASGYTFYWNAMGWYRQAPGKEREFVASFSGTSTYYADSVKGRFTISRDNAKNTVYLQMNSLKREDTAVYYCNARLTLGPRKYEYWGPGTQVTVSS | low polyreactivity
35 | QVQLVESGGGLVQAGGSLRLSCAASGRIFGRNAMGWYRQAPGKERELVAAISSSGRTYYADSVKGRFTISRDNAKNTVYLQMNSLKPEDTAVYYCAAYGYSWGQGTQVTVSS | high polyreactivity
36 | QVQLVESGGGLVQAGGSLRLSCAASGITLRYYTMGWYRQPPGKERELVADISYRGGSTTYADSVKGRFTISRDNAKNTVYLQMNSLKPEDTAVYYCNARKRTFPSRSIGGDYWGQGTQVTVSS | high polyreactivity
37 | QVHLVESGGGLVQAGGSLRLSCAASGRIYPYPMGWYRQAPGKERELVAAITSRGGTTYYADSVKGRFTISRDNAKNTDYVQMNSLKPEDTAVYYCNKRPWWWGGDDYWGQGTQVTVSS | low polyreactivity
38 | QVQLVESGGGLVQAGGSLRLSCASSGTLYRYAMGWYIQATGKERELVAAISSNGGSTYYADSVKGRFTISRDNEKNTVYLQMNSLKPEDTAVYYCNALSRRFPLYGFWGQGTQVTVSS | high polyreactivity
39 | QVQLVESGGGFVQAGGSLRLSCAASGSTFRWNAMGWYRHAPGKERELDASITAGGSTNYADSVKGRFTISRDNAKNTVYLQINSLTPEDTAVYYCNADVRRSTYYVWLYDYWGQGTQVTVSS | low polyreactivity
40 | QVQLVESGGGLVQAGGSLRLSCAASGITLKKYAMVWYRQAPGKERELVAAISIRGTSTYYADSVKGRFTISRDNAKNSVFLQMNSLKPEDTAVYYFAALYVVGDVRSGYWGQCTQVTVSS | high polyreactivity
41 | QVQLVESGGGLVQAGGSLRLSCAASGYTFNRNAMGWYRQAPGKERELVASITRRGGYTYYADSVKGRFTISRDNAKNTDYLQMISLKPEDTAVYYCAVESIRTGDYWGQGTQVTVSS | high polyreactivity
42 | QVQLVESGGGLVQAGGSLRLSCAASGRIFPSYTMGWYRQAPGKERELVAGITKSGSSTYYADSVKGRFTISRDNAKNTVYLQMNSLKPEDTAVYYCAAVYGNPSYRYGYWGQGTQVTVSS | high polyreactivity
43 | QVKLVESGGCLVQEGGSLRLSCAASGSIFGHYVMRWYRQAPGKERELVAAINRGGSTYYADSVKGRFTISRDNAKNTVYLQMNSLKPEDTAVYYCAAGYPSWYYGYPYDSWGQGTQVTVSS | low polyreactivity
